Results taken from paper PMC5002451.
Where two headings read alike, the source gives them in different places.

T1: RIG-I (human, UniProt O95786 1-925)
T1 sequence: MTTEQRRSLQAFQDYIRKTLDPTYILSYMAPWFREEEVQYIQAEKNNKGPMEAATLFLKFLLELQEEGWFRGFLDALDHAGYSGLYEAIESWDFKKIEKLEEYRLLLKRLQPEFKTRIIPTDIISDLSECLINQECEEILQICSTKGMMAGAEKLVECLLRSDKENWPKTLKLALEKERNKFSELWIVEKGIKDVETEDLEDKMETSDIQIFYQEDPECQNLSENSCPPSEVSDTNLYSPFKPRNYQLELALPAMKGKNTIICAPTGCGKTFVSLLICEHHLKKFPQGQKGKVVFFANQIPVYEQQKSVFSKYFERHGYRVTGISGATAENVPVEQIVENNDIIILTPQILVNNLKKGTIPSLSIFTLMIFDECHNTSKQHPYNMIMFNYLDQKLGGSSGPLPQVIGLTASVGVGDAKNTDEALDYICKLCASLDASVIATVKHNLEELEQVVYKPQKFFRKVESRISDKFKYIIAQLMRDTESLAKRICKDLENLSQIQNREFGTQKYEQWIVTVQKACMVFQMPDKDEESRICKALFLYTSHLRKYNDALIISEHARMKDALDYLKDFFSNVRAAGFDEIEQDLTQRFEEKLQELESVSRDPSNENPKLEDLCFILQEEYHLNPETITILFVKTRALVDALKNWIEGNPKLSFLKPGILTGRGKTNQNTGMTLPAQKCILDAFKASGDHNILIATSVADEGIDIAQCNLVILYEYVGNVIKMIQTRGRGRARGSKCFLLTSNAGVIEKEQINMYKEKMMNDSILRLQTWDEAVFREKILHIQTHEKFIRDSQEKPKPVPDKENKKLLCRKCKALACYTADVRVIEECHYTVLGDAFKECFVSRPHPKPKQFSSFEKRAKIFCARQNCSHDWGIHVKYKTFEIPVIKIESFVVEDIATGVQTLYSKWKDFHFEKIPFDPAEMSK

B1: 47R/25RI (dsRNA)
RNA 1: GGAAAAUGUAAAUGACAUAGGCGCGCUGAAAGGGAGAAGUGAAAGUG
RNA 2: CGCGCCUAUGUCAUUUACAUUUUCC
modifications: 5'-OH
B2: 3P-47R/25RI (dsRNA)
RNA 1: B1 RNA 1
RNA 2: CGCGCCUAUGUCAUUUACAUUUUCC
modifications: 5'-triphosphate (on 47R, implied by name)
B3: 3P-47R/25DI (DNA:RNA)
RNA: B1 RNA 1
DNA: CACTTTCACTTCTCCCTTTCAGCGC
modifications: 5'-triphosphate (on 47R, implied by name)

How the values were obtained:
[1] = molecular target: T1, RIG-I; assay: EMSA
[2] = molecular target: T1, RIG-I; assay: EMSA; remark: listed apart in the source

Row | Binder | binding result [1] | binding result [2]
1 | B1 | binds | –
2 | B2 | – | binds
3 | B3 | – | binds
